This is an account of results in US9475855B2, “Human Notch3 based fusion proteins as decoy inhibitors of Notch3 signaling” (THE TRUSTEES OF COLUMBIA UNIVERSITY IN THE CITY OF NEW YORK, priority 2008, dated 2016).

Test [1] relates to Notch1 signaling. The test is described as follows: co-culture assay of ligand-induced Notch signaling (CSL-luciferase reporter; HeLa expressing Notch1, ligand-expressing 293/Bosc cells). It is filed as cell-based. The settings on record: for activation of Notch1 signaling by Notch ligands: N1ECD/Fc expression vector co-transfected with full-length Notch1 and CSL-luciferase reporter in HeLa cells, co-culture with ligand expressing cells. Here is the method:
Notch and Notch responsive transcriptional reporters are expressed in a “Notch-responsive” cell, HeLa. Notch ligands, Jagged-1, Delta-like 1, or Delta-like 4 are expressed in a “ligand-presenting” cell, 293. Expression is mediated by transfection of individual cell populations, cells are co-cultured, and then assayed for Notch-dependent reporter activity.
To determine ligand-induced Notch signaling, co-culture assays were performed using HeLa and 293-derived Bosc cells. Transient transfections were performed by calcium phosphate precipitation. Hela cells plated 1-day prior in 10-cm plates at 1.5×10^6 were transfected with 333 ng of pBOS Notch1, 333 ng pGA981-6, and 83 ng pLNC lacZ with either 666 ng pCMV-Fc or pHyTC-N1ECDFc (333 ng for x1, 666 ng for x2). Bosc cells plated 1-day prior in 10-cm plates at 4×10^6 were transfected with either 680 ng pHyTc-Jagged1, pHyTc-Dll1, pHyTc-Dll4, or pHyTc-x (empty vector). One day after transfection, the cells were co-cultured in triplicate (HeLa:Bosc, 1:2) on 12-well plates for 24 hours. Cells were harvested and luciferase activity was determined 2-days post-transfection using the Enhanced Luciferase assay kit (BD PharMingen), and […] activity was determined using the Galacto-Light Plus kit (PE Biosystems). All assays were performed in a Berthold dual-injection luminometer.
An in vitro co-culture system (FIG. 3) with ligands expressed on one cell and Notch receptor activation scored in another cell was used to measure transcriptional activation of the Notch pathway. […] The N1ECD/Fc expression vector was co-transfected at different ratios with full-length Notch1 and the CSL-luciferase reporter in HeLa cells, followed by co-culture with ligand expressing 293 cells. We observed that activation of Notch1 signaling by Notch ligands was reduced by N1ECD/Fc expression. […] Notch1ECD/Fc could block signaling mediated by Jagged1, Delta-like 1 or Delta-like 4.
On the technique in general: In a reporter assay the amount or activity of a reporter protein is the signal.

Test [2] concerns VEGF-induced angiogenesis. As to the kind of experiment: mouse Dorsa Air Sac (DAS) assay. It is filed as in vivo. An excerpt:
These Figures show the role of Notch signaling in VEGF-dependent in vivo angiogenesis. FIGS. 25A-25D show inhibition of VEGF-induced angiogenesis with N1ECDFc in mouse DAS assay. Representative photographs are shown. FIG. 25A show subcutaneous induced angiogenesis with 293/VEGF transfectant versus 293/VEGF also expressing Notch decoy (Notch-based fusion protein) N1ECDFc. […] MDA-MB-231 breast cancer cells produce VEGF (data not shown).

The subject of test [3] is Ad-VEGF-infected HUVEC. The test is described as follows: VEGF-induced HUVEC budding (sprouting) on collagen gel. The conditions noted are these: for budding / morphology of HUVEC with Notch fusion protein alone: no Ad-VEGF. It is filed as cell-based, human. Here is the method: For making collagen gels, an ice-cold solution of porcine type I collagen (Nitta gelatin, Tokyo, Japan) was mixed with 10xRPMI1640 medium and neutralization buffer at the ratio of 8:1:1. 400 μl aliquots of collagen gel were then added to 24-well plates and allowed to gel for at least 1 hour at 37° C. Following adenoviral infection (above), HUVEC was harvested and plated at 1.3×10^5 cells per well onto the top of the collagen gel in 24-well plates in 0.8 ml of EGM2 medium. HUVEC became nearly confluent 48 hours after plating. After seeding, medium was changed every 2 days for 1 week. Sprouting was observed and photographs taken after 8 days with an Olympus digital camera mounted to a microscope. For quantification of the number of sprouts, 5 fields per each well were randomly selected and sprouting was counted under microscopy in a blind manner by two investigators.
In this experiment, we evaluated the effect of Notch decoy on induction of budding (initiation of sprouting) by over-expressed VEGF-165 in HUVEC. When Ad-VEGF-infected HUVEC were cultured on type collagen gel for 8 days, budding was induced into collagen gel.

Test [4] has as its system CBF1 promoter activity. As to the kind of experiment: VEGF-induced Notch signaling, CBF1 promoter (CSL-luciferase) reporter activity in HUVEC. The class given is cell-based, human. The conditions noted are these: for inhibition of CBF1 promoter activity induced by Ad-VEGF: 40 MOI for each adenovirus; for VEGF-induced CBF1 promoter / CSL-luciferase reporter activity: Ad-VEGF-transduced HUVEC. The protocol:
To determine VEGF-induced Notch signaling, HUVEC which were infected with adenovirus were used. HUVEC plated 1-day prior in 6 well plates at 8.0×10^5 were infected with either Ad-LacZ as control or Ad-VEGF at indicated m.o.i. in the presence or absence of Ad-N1ECD/Fc. Two days after infection, infected HUVEC were re-seeded into 24-well plate at 1.5×10^5 cell in triplicate and cultured for 24 hours, and then transfected with 12.5 ng pRL-SV40 (Promega) and 137.5 ng pGA981-6 using Effectene transfection reagent (Qiagen). Cells were harvested either 1 or 2 days post-transfection and luciferase activity was determined by using the Dual-Luciferase® Reporter Assay System (Promega).
One can measure Notch signaling function by measuring transcriptional activity of CBF1 promoter, which is activated by binding of Notch-IC to CBF1. We measured CBF1 promoter activity in HUVEC which was infected with adenovirus encoding VEGF-165 at different MOI (FIG. 6). Induction of CBF1 promoter was clearly detected in Ad-VEGF-infected HUVEC, compared to Ad-LacZ-infected cells in the MOI dependent manner. […] Thus VEGF induced Notch signaling activity.

Test [5] relates to MMP9. The test is described as follows: RT-PCR analysis of MMP9 expression in HUVEC. It is filed as cell-based, human. Here is the method:
FIGS. 24A-B show gelatin zymography analysis of MMP-9 and MMP-2 activity stimulated by VEGF in HUVEC. […] Transduced HUVEC were cultured on fibrin gel on the indicated day (i.e. D2, D4, D6, D8). Similar results were also obtained by using collagen gel, although induction of MMP-9 was stronger on fibrin gel than collagen gel (data not shown). […] HUVEC were transduced with Ad-N1ECDFc at the indicated doses and condition medium was collected from HUVEC cultured on collagen gel at day 4. FIGS. 24C-D show up-regulation of MMP-9 and MT1-MMP with Notch signaling. HUVEC were transduced with either Ad-LacZ or Ad-N1IC at 40 MOI. Numbers show PCR cycles. […] HUVEC were transduced with Ad-VEGF in the absence or presence of co-transduction of Ad-N1ECDFc at 40 MOI each. Ad-LacZ was co-transduced to make the same total amount of adenovirus at 80 MOI.
Requisition of MMPs for angiogenic sprouting has been established by synthetic MMP inhibitors (16). GM6001 is one broad inhibitor against MMPs including MMP2, MMP9 and MT1-MMP (18).

The mark [6] stands for this setting: in vivo assays to model VEGF-induced skin neovascularization.

B1: N1ECDFc: Notch-based fusion protein or decoy: Notch1 extracellular domain EGF repeats fused to Fc; expressed from plasmid or adenovirus (Ad-N1ECDFc) (protein)
chain: ARGLRCSQPSGTCLNGGRCEVANGTEACVCSGAFVGQRCQDPSPCLSTPCKNAGTCYVVDHGGIVDYACSCPLGFSGPLCLTPLANACLANPCRNGGTCDLLTLTEYKCRCPPGWSGKSCQQADPCASNPCANGGQCLPFESSYICGCPPGFHGPTCRQDVNECSQNPGLCRHGGTCHNEIGSYRCACRATHTGPHCELPYVPCSPSPCQNGGTCRPTGDTTHECACLPGFAGQNCEENVDDCPGNNCKNGGACVDGVNTYNCRCPPEWTGQYCTEDVDECQLMPNACQNAGTCHNSHGGYNCVCVNGWTGEDCSDNIDDCASAACFQGATCHDRVASFYCECPHGRTGLLCHLNDACISNPCNEGSNCDTNPVNGKAICTCPRGYTGPACSQDVDECALGANPCEHAGKCLNTLGSFECQCLQGYTGPRCEIDVNECISNPCQNDATCLDQIGEFQCICMPGYEGVYCEINTDECASSPCLHNGRCVDKINEFLCQCPKGFSGHLCQYDVDECASTPCKNGAKCLDGPNTYTCVCTEGYTGTHCEVDIDECDPDPCHIGLCKDGVATFTCLCQPGYTGHHCETNINECHSQPCRHGGTCQDRDNYYLCLCLKGTTGPNCEINLDDCASNPCDSGTCLDKIDGYECACEPGYTGSMCNVNIDECAGSPCHNGGTCEDGIAGFTCRCPEGYHDPTCLSEVNECNSNPCIHGACRDGLNGYKCDCAPGWSGTNCDINNNECESNPCVNGGTCKDMTSGYVCTCREGFSGPNCQTNINECASNPCLNQGTCIDDVAGYKCNCPLPYTGATCEVVLAPCATSPCKNSGVCKESEDYESFSCVCPTGWQGQTCEIDINECVKSPCRHGASCQNTNGSYRCLCQAGYTGRNCESDIDDCRPNPCHNGGSCTDGVNAAFCDCLPGFQGAFCEEDINECATNPCQNGANCTDCVDSYTCTCPTGFNGIHCENNTPDCTESSCFNGGTCVDGINSFTCLCPPGFTGSYCQYDVNECDSRPCLHGGTCQDSYGTYKCTCPQGYTGLNCQNLVRWCDSAPCKNGGKCWQTNTQYHCECRSGWTGFNCDVLSVSCEVAAQKRGIDVTLLCQHGGLCVDEEDKHYCHCQAGYTGSYCEDEVDECSPNPCQNGATCTDYLGGFSCKCVAGYHGSNCSEEINECLSQPCQNGGTCIDLTNTYKCSCPRGTQGVHCEINVDDCHPPLDPASRSPKCFNNGTCVDQVGGYTCTCPPGFVGERCEGDVNECLSNPCDPRGTQNCVQRVNDFHCECRAGHTGRRCESVINGCRGKPCRNGGVCAVASNTARGFICRCPARFEGATCENDARTCGSLRCLNGGTCISGPRSPTCLCLGSFTGPECQFPASSPCVGSNPCYNQGTCEPTSESPFYRCLCPAKFNGLLCHILDYSFTDLGPG
modifications: left off: a dimerising Fc or GST
In the case of B1, the “concentration-dependency of inhibiting signaling” value in test [1] (2:1 ratio of N1ECD/Fc to Notch1 compared with 1:1 ratio) is on record as “more effective”. The entries for the “activation of Notch1 signaling by Notch ligands” value in test [1] and in test [1] (listed as N1ECD/Fc) were “inhibition” and “reduced”, respectively. Further, in test [1] (co-culture with Delta-like 1 expressing cells), the “signaling mediated by Delta-like 1” value was “block”. Also, in test [1] (co-culture with Delta-like 4 expressing cells), the “signaling mediated by Delta-like 4” value is “block”. For the same molecule, the “signaling mediated by Jagged1” value in test [1] (co-culture with Jagged1 expressing cells) is “block”. Besides, the “in vivo angiogenesis induced by MDA-MB-231” value in test [2] (adenovirus mediated expression of N1ECDFc, compared to adenovirus expressing LacZ) is “clearly inhibited”. The “in vivo angiogenesis induced by 293/VEGF” value in test [2] (coexpression of N1ECDFc, compared to 293/VEGF alone) was “clearly inhibited”. The VEGF-induced neo-vascularization entry in test [2] (setting [6]) is listed as “blocks”. Moreover, the “induction of VEGFR-1 expression” value in test [2] (setting [6]) was “blocks”. Also, in test [3] (FIG. 22I), the “cell number in VEGF-induced budding assay” value is reported as “without affecting cell number”. The “budding of Ad-VEGF-HUVEC” value in test [3] (collagen gel) is “clearly inhibited”. In addition, the figures for the “budding / morphology of HUVEC with Notch fusion protein alone” value in test [3] and in test [3] (listed as Notch fusion protein) were “Neither Ad-LacZ or Ad-N1ECDFc-transduced HUVEC formed buds” and “less effect on morphology”, respectively. Also, the “inhibition of CBF1 promoter activity induced by Ad-VEGF” value is given as 60% in test [4] (24 hr after reporter gene transfection) and 90% in test [4] (48 hr after reporter gene transfection). The entries for the “VEGF-induced CBF1 promoter / CSL-luciferase reporter activity” value in test [4] and in test [4] (listed as Notch fusion protein) were “clearly decreased” and “clearly reduced”, respectively. The “expression of MMP9” value in test [5] (Ad-N1ECDFc infection alone, Ad-LacZ infected HUVEC (data not shown)) was “did not affect”. In addition, in test [5] (Ad-VEGF-HUVEC, co-transduction at 40 MOI each), the “VEGF-induced up-regulation of MMP9 mRNA” value is given as “inhibited”.
